Literature values, collected in publication PMC4488278.

Target: EGFR (Homo sapiens) (UniProt P00533)

Kd: 1 nM
Substance: EGF (from UniProt P01133)
